Read-outs that look alike come from different tables or passages of the source. *1 amine or outer side, *2 acyl side, *3 side chain or, on linkers, in order; H or OH if unused. Where a SMILES comes first, the peptide text is derived from it. Side-chain parts run from the residue outwards. [ ]: non-standard residue; d: D form. The star is where a group is joined. HSG = histamine succinyl glycyl group, O=C(CCC(=O)NCC(=O)*)NCCc1c[nH]cn1; DOTA = O=C(O)CN1CCN(CC(=O)O)CCN(CC(=O)*)CCN(CC(=O)O)CC1; NH(2-(imidazol-4-yl)ethyl) = c1ncc(CCN*)[nH]1; Suc = O=C(CCC(=O)[*:2])[*:1]
Experiments:
[1] = IRDye800CW irradiations (radiobleaching); type: physicochemical
Method: To assess the radiosensitivity of 800CW, 5 μg/mL aqueous solution of the dye in 0.1 M NaAc buffer pH 4.5 was prepared and mixed with increasing activities of ^68Ga, ^111In, and ^213Bi (1-20 MBq) for a 310 μL final volume. Radioactive solutions were incubated in 1.5 mL Eppendorf tubes at 4° C. in the dark, and 100 μL aliquots taken at 0.5, 6, and 24 h time points for fluorescence measurement. The effect of volume on 800CW's radiosensitivity was determined by incubating 150, 300, 550,800, or 1050 μL of 5 μg/mL buffered dye solution with 20 MBq of ^68Ga. All fluorescence readings were normalized to non-irradiated controls.

[2] = Effect of heating on fluorescence of 800CW; type: physicochemical; conditions: NaAc 0.1 M pH 4.5, 1 h at 95° C.
Method: To investigate the effect of heating on the fluorescence of 800CW, 5 μg/mL solutions of the dye in NaAc (0.1 M, pH 4.5) were placed in a heating block at 95° C. for 5, 15, 30, or 60 min. Following, samples were cooled down to room temperature, measured in the plate reader, and the fluorescence of each sample was normalized to a non-heated control.

[3] = Radioprotection of 800CW with radical scavengers; type: physicochemical; conditions: for radioprotection of 800CW: 20 MBq of ^68Ga, 0.5, 3 and 6 h exposure
Method: The radioprotective effect of three common hydroxyl radical scavengers, ethanol, gentisic acid (GA) and ascorbic acid (AA) was tested. […]

[4] = Stability of Al^18F(IMP467) in human serum or PBS; type: in vitro ADME
Method: An aliquot of the HLB purified peptide (˜30 μL) was diluted with 200 μL human serum (previously frozen) and placed in the 37° C. HPLC sample chamber. Aliquots were removed at various time points and analyzed by HPLC.
Optimized conditions for ^18F-labeling of IMP467 were identified. These consisted of eluting ^18F^− with commercial sterile saline (pH 5-7), mixing with 20 nmol of AlCl3 and 40 nmol IMP467 in pH 4 acetate buffer in a total volume of 100 μL, heating to 102° C. for 15 min, and performing SPE separation. High-yield (85%) and high specific activity (115 GBq/μmol) were obtained with IMP467 in a single step, 30-min procedure after a simple solid-phase extraction (SPE) separation without the need for HPLC purification. Al^18F(IMP467) was stable in PBS or human serum, with 2% loss of ^18F after incubation in either medium for 6 h at 37° C.

[5] = Stability of ^18F-labeled IMP449 in human serum at 37° C.
Method: Three microliters of a 2 mM solution of Al in a pH 4 acetate buffer was mixed with 15 μL, 1.3 mCi of ^18F. […] […] […] Another aliquot was removed after 1 hr and analyzed by HPLC.

[6] = test system: nude mice bearing LS174T human colonic xenografts; test: Biodistribution of ^18F-labeled agents with or without TF2 pretargeting; conditions: not pretargeted
Text: Six-week-old NCr nu-m female nude mice were implanted s.c. with the human colonic cancer cell line, LS174T (ATCC, Manassas, Va.).
Tissues were weighed and counted together with a standard dilution prepared from each of the respective products. Due to the short physical half-life of ^18F, standards were interjected between each group of tissues from each animal. Uptake in the tissues is expressed as the counts per gram divided by the total injected activity to derive the percent-injected dose per gram (% ID/g).

[7] = PET/CT images, region of interest ratios; type: in vivo, mice; conditions: male, BALB/c nude, mouse, iv, total radioactivity, mice with LS174T tumor and inflamed muscle, ^68Ga(IMP288) after TF2
Method: (§1) PET images were acquired with an Inveon animal PET/CT scanner (Siemens Preclinical Solutions, Knoxville, Tenn.). PET emission scans were acquired for 15 minutes, preceded by CT scans for anatomical reference (spatial resolution 113 μm, 80 kV, 500 μA, exposure time 300 msec).
(§2) Uptake in the tumor was evaluated quantitatively by drawing regions of interest (ROI), using a 50% threshold of maximum intensity. A region in the abdomen was used as background region.

[8] = test system: nude BALB/c mice with s.c. LS174T tumors; test: PET/CT images, region of interest ratios; type: in vivo
Method: as §1, §2

[9] = test system: nude mice bearing Capan-1 human pancreatic cancer xenografts; test: Biodistribution of radiolabeled Fab′; conditions: 3 h after injection
Method: (§3) Nude mice were inoculated subcutaneously with CaPan-1 human pancreatic adenocarcinoma (ATCC Accession No. HTB-79, Manassas, Va.). When tumors were visible, the animals were injected intravenously with 100 μL of the radiolabeled Fab′. […] The animals were necropsied at 3 h post injection, tissues and tumors removed, weighed, and counted by gamma scintillation, together with standards prepared from the injected products. The data are expressed as percent injected dose per gram.

CEA = target: T1, CEA (Homo sapiens, UniProt P06731); test: Immunoreactivity with excess CEA by SE-HPLC; type: binding; conditions: 0.74-GBq run
T1 sequence (P06731 35-676): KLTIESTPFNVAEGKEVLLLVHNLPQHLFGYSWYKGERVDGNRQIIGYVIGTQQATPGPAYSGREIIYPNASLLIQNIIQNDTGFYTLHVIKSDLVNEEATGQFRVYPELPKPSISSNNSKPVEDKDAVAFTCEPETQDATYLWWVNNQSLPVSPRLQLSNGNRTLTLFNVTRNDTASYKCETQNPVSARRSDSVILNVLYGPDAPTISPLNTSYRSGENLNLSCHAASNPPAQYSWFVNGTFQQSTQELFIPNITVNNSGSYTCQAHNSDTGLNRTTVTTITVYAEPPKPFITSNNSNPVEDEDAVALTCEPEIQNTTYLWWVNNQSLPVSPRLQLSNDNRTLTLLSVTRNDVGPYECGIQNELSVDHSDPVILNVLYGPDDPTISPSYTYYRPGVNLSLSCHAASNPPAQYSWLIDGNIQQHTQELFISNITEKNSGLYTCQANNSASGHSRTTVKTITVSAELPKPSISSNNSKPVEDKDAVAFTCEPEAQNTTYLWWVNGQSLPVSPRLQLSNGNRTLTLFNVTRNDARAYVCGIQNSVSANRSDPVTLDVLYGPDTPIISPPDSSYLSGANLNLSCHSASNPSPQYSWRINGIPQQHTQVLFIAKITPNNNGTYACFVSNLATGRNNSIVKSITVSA
Method: Immunoreactivity of the purified product was analyzed by adding an excess of CEA and separating on SE-HPLC, comparing to a profile of the product alone. The product was also analyzed by RP-HPLC to assess percent-unbound Al^18F(NOTA-MPAEM).

[10] = test system: nude mice bearing Capan-1 human pancreatic cancer xenografts; conditions: mouse, in vivo
Method: as §3

[11] = target: somatostatin receptors on AR42J cells (rat); test: apparent IC50; competition with ^111In(DTPA-octreotide) on AR42J cells, 3 h at RT
[12] = Stability of ^18F-labeled IMP272 in PBS (reverse phase HPLC); type: physicochemical; conditions: incubated at room temperature with PBS for ~1 hr
Method: ^18F-Labeling of IMP272—A 3 μL aliquot of the aluminum stock solution was placed in a REACTI-VIAL™ and mixed with 50 μL ^18F (as received) and 3 μL of the IMP272 solution. […] The remainder of the peptide solution was incubated at room temperature with 150 μL PBS for ˜1 hr and then examined by reverse phase HPLC.

Chain of somatostatin receptors on AR42J cells (rat) (P30680 whole entry): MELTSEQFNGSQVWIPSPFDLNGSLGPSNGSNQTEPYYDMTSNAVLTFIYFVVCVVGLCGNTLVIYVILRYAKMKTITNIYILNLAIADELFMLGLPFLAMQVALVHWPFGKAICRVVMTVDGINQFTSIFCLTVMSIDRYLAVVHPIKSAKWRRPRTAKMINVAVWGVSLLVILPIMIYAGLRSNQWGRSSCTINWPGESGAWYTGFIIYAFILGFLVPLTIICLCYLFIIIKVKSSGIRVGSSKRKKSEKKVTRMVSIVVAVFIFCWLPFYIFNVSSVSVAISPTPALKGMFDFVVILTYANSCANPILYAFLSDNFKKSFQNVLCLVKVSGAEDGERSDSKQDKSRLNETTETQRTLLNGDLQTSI

CC1(C)C(/C=C/C2=C(Oc3ccc(S(=O)(=O)O)cc3)C(=C/C=C3/N(CCCCS(=O)(=O)O)c4ccc(S(=O)(=O)[O-])cc4C3(C)C)/CCC2)=[N+](CCCCCC(=O)O)c2ccc(S(=O)(=O)O)cc21 [800CW]
change of 800CW fluorescence on exposure to ^68Ga ([1]; 0.1 M NaAc pH 4.5, 30 min exposure, increasing activities): pronounced dose-dependent decrease
extent of radiobleaching by the three radionuclides, trend ([1]; similar activity level and exposure times): ^68Ga>^111In>^213Bi
fluorescent intensity, % of the initial values [2]: 60%

O=C1O[C@H]([C@@H](O)CO)C(O)=C1O [AA, ascorbic acid]
radioprotection against ^111In and ^213Bi induced radiobleaching of 800CW ([3]; 0.1% (w/v) AA): effective radioprotection
concentrations that completely preserve 800CW fluorescence ([3]; 20 MBq of ^68Ga, longer radiation exposure): 0.001-10 % (w/v)

NC(=O)[C@@H](CCCCNC(=O)CNC(=O)CCC(=O)NCCc1c[nH]cn1)NC(=O)[C@@H](Cc1ccc(O)cc1)NC(=O)[C@@H](CCCCNC(=O)CNC(=O)CCC(=O)NCCc1c[nH]cn1)NC(=O)CCC(=O)Nc1ccc(CC(CN2CCN(CC(=O)O)CCN(CC(=O)O)CC2)N(CC(=O)O)CC(=O)O)cc1 (stereo partly drawn) [Al^18F(IMP467)]
loss of ^18F ([4]; incubation in PBS or human serum for 6 h at 37° C.): 2%

CCO [EtOH, ethanol]
radioprotection of 800CW [3]: both concentration and exposure time dependent

O=C(O)c1cc(O)ccc1O [GA, gentisic acid]
radioprotection of 800CW [3]: both concentration and exposure time dependent

C[C@@H](NC(=S)Nc1ccc(CC2CN(CC(=O)O)CCN(CC(=O)O)CCN2CC(=O)O)cc1)C(=O)N[C@H](CCCCNC(=O)CNC(=O)CCC(=O)NCCc1c[nH]cn1)C(=O)N[C@H](Cc1ccc(O)cc1)C(=O)N[C@H](CCCCNC(=O)CNC(=O)CCC(=O)NCCc1c[nH]cn1)C(N)=O (stereo partly drawn) [IMP449, NOTA-benzyl-ITC-D-Ala-D-Lys(HSG)-D-Tyr-D-Lys(HSG)-NH2]
stability in human serum [5]: 76%
stability in human serum ([5]; purified, 37° C., at least one hour): 91%

[18FH] [^18F, reference compound]
tumor/blood ratio [6]: 6.7±2.7

NC(=O)[C@@H](CCCCNC(=O)CNC(=O)CCC(=O)NCCc1c[nH]cn1)NC(=O)[C@@H](CCC(=O)O)NC(=O)[C@@H](CCCCNC(=O)CNC(=O)CCC(=O)NCCc1c[nH]cn1)NC(=O)[C@@H](Cc1ccc(O)cc1)NC(=O)CN1CCN(CC(=O)O)CCN(CC(=O)O)CCN(CC(=O)O)CC1 [^68Ga(IMP288), metal not drawn] ({DOTA}-[dY][dK]([Gly-Suc-NH(2-(imidazol-4-yl)ethyl)])[dE][dK]([Gly-Suc-NH(2-(imidazol-4-yl)ethyl)])-NH2)
tissue to tissue ratio at 1 h ([7]; read-out: inflamed muscle-to-background ratio in PET/CT image): 8.9
tissue to tissue ratio at 1 h ([7]; read-out: tumor-to-background ratio in PET/CT image): 48
tumor-to-background ratio in PET image ([8]; TF2 and ^68Ga(IMP288), 1 h, ROI 50% threshold, abdomen as background): 38.2
tumor-to-inflamed tissue ratio in PET/CT image ([8]; mice with LS174T tumor and inflamed muscle, ^68Ga(IMP288) after TF2): 5.4

Al^18F(NOTA-MPAES)-hMN-14 Fab′: Al^18F(NOTA-MPAEM) conjugated to Fab′ of humanized MN-14 anti-CEACAM5 IgG (labetuzumab)
% ID/g Blood [9]: 0.5 ± 0.1 % ID/g
% ID/g Capan-1 tumor [9]: 2.8 ± 0.3 % ID/g
% ID/g Kidney [9]: 216 ± 30.9 % ID/g
% ID/g Lg. Int. [9]: 1.1 ± 0.4 % ID/g
% ID/g Liver [9]: 17.5 ± 3.8 % ID/g
% ID/g Lung [9]: 4.2 ± 1.6 % ID/g
% ID/g Muscle [9]: 0.4 ± 0.1 % ID/g
% ID/g Scapula [9]: 1.6 ± 0.4 % ID/g
% ID/g Sm. Int. [9]: 2.2 ± 0.2 % ID/g
% ID/g Spleen [9]: 11.3 ± 1.6 % ID/g
% ID/g Stomach [9]: 0.6 ± 0.1 % ID/g
T/NT Blood (tumor/blood ratio) [9]: 5.9 ± 1.3
T/NT Kidney [9]: 0.0 ± 0.0
T/NT Lg. Int. [9]: 2.8 ± 0.7
% ID/g Capan-1 tumor ([9]; listed as [Al^18F]-Fab′): 2.8±0.3 % ID/g
T/NT Blood (tumor/blood ratio) ([9]; listed as [Al^18F]-Fab′): 5.9±1.3
shift of activity on SE-HPLC when excess CEA was added (CEA): all of the activity shifted
T/NT Liver [10]: 0.2 ± 0.04
T/NT Lung [10]: 0.8 ± 0.5
T/NT Muscle [10]: 6.7 ± 1.3
T/NT Scapula [10]: 1.8 ± 0.4
T/NT Sm. Int. [10]: 1.3 ± 0.1
T/NT Spleen [10]: 0.3 ± 0.04
T/NT Stomach [10]: 4.7 ± 1.2

Al^19F(IMP466) (peptide)
IC50 [11]: 3.6 nM

C-NETA-succinyl-D-Lys(HSG)-D-Tyr-D-Lys(HSG)-NH2 ({C‑NETA-Suc}-[dK](HSG)-[dY]-[dK](HSG)-NH2) [IMP467]
breakdown of ^18F-labeled peptide in serum ([4]; human serum, 37° C., five hour incubation): no detectable breakdown

DTPA-Gln-Ala-Lys(HSG)-D-Tyr-Lys(HSG)-NH2 [IMP272]
^18F still attached to the peptide [12]: 42%
^18F unbound [12]: 58%

^69Ga(IMP466) (peptide)
IC50 [11]: 13 nM

^115In(DTPA-octreotide) (peptide)
IC50 [11]: 6.3 nM

From patent US20160199524A1, “RADIOSENSITIVITY OF FLUOROPHORES AND USE OF RADIOPROTECTIVE AGENTS FOR DUAL-MODALITY IMAGING” (Immunomedics, Inc., priority 2015, published 2016)
